Assay results reported in publication PMC11329518.

Assays:
Assay in all cases: fluorescence polarisation
[1] = target: 5'FAM-labeled peptide H3 (1-21)
[2] = target: 5'FAM-labeled peptide H3K9me1
[3] = target: 5'FAM-labeled peptide H3K9me2

B1: GST-ARID1-His (natural protein)
chain: MAGWSMVADEDAVDYSKTPKSLDANRSPESVNPESTGFEKKIKELISLFRPLLDSFLAEFCSADGFLPLPAMTGEGRTVDLFNLFLNVTHKGGFDAVSENGSWDEVVQESGLESYDSASAKLIYVKYLDAFGRWLNRVVAGDTDVSSVELSGISDALVARLNGFLSEVKKKYELRKGRPAKELGAELKWFISKTKRRYDKHHVGKESASNDAVKEFQGSKLAERRLEQIMILESVTQECSSPGKRKRECPLETLKWLSDVAKDPCDPSLGIVPDRSEWVSYGSEEPWKQLLLFRASRTNNDSACEKTWQKVQKMHPCLYDDSAGASYNLRERLSYEDYKRGKTGNGSDIGSSDEEDRPCALVGSKFQAKVPEWTGITPESDSKWLGTRIWPLTKEQTKANLLIERDRIGKGRQDPCGCHNPGSIECVKFHITAKRDKLKLELGPAFYMWCFDVMGECTLQYWTDLELKKIKSLMSSPPSLSPAFIHQAKMILPSKSRGKIVSYFYNVTLLQYRASQSRITPHDIDSDTDQIFLRATENENPAPEANTFQKPALLSPNKKRCR
- Kd [1]: 4.73 µM
- Kd [2]: 21.2 µM
- Kd [3]: 40.5 µM
